In patent US20230051715A1 (MABWELL THERAPEUTICS, published 2023):
Numbering of substitutions follows the chain as printed. Numbers in names are those of the source. Each block holds one binder with its values, some of them ahead of it.

How the values were obtained:
[1] = target: T1, human C1s mutant M2 (M277I & K331Q) (human, UniProt P09871 16-688); assay: ELISA, plate coated with human C1s mutant M2: M277I, K331Q, OD450nm
T1 construct: The entry is the mutant itself
T1 sequence: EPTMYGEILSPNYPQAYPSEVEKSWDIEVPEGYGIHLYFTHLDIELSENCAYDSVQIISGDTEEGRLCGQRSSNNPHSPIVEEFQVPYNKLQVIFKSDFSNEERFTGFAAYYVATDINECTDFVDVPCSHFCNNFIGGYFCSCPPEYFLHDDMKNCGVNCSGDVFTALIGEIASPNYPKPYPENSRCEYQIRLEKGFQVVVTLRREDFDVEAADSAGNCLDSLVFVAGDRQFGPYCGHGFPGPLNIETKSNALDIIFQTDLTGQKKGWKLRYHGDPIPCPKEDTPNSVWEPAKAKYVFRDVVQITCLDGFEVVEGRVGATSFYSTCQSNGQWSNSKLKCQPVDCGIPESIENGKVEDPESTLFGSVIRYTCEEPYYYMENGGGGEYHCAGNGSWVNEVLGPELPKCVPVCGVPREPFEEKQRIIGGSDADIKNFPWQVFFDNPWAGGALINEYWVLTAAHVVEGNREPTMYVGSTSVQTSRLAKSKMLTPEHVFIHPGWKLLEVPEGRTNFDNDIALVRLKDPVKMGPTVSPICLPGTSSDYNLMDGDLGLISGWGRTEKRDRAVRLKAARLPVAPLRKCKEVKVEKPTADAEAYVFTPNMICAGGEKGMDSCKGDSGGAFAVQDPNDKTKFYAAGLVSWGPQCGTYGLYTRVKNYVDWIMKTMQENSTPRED
Method: (§1) ELISA was carried out by first coating 96-well plates with 200 ng/well of full-length or truncated C1s proteins overnight. The next morning, plates were blocked with SuperBlock T20 blocking buffer (Thermo Scientific 37536) for 1 h with gentle shaking. Then, various concentrations of anti-C1s antibodies diluted in SuperBlock T20 blocking buffer were added to the plates and incubated for 1 h with gentle shaking. Mouse IgG (Sigma-Aldrich 15381) and human IgG1 (BioXCell BP0297) were used as negative controls. The plates were washed before incubating with HRP conjugated secondary antibodies diluted in SuperBlock T20 blocking buffer (goat anti-mouse IgG (H+L) cross-adsorbed secondary antibody HRP (Invitrogen G-21040) or goat anti-human IgG antibody, HRP conjugate (Millipore AP309P)) for 1 h with gentle shaking. At last, the plates were washed and color developed with ELISA liquid HRP substrate (Sigma-Aldrich), followed by stopping the reaction with addition of 1M H₂SO₄ in the same volume as the ELISA liquid substrate. Bound antibody was measured by absorbance at OD₄₅₀ₙₘ.
(§2) Binding of anti-C1s antibodies to mutants M1-M20 of human C1s was measured by ELISA as described in Example 4, and results are shown in FIGS. 6B-6U. All anti-C1s humanized variants including hz2-7(H1L2), hz2-8(H1L2 G80A) and hz2-8(H1L2 G80A/T82A) maintained strong binding properties to the majority (16 out of 20) of C1s mutants including M1 (FIG. 6B), M2 (FIG. 6C), M3 (FIG. 6D). M4 (FIG. 6E), M7 (FIG. 6H), M8 (FIG. 6I), M10 (FIG. 6K), M11 (FIG. 6L), M12 (FIG. 6M), M13 (FIG. 6N), M15 (FIG. 6P), M16 (FIG. 6Q), M17 (FIG. 6R), M18 (FIG. 6S), M19 (FIG. 6T) and M20 (FIG. 6U).

[2] = target: T2, human C1s mutant M3 (M277I, P278S & N329D) (human, UniProt P09871 16-688); assay: ELISA, plate coated with human C1s mutant M3: M277I, P278S, N329D, OD450nm
T2 construct: The entry is the mutant itself
T2 sequence: T1 sequence with P278S, N329D, Q331K
Method: as §1, §2

- EC50 [1]: 7 ng/mL
- EC50 [2]: 6 ng/mL
B1: Anti-C1s antibody hz2-8 (H1L2 G80A) (antibody, V domains shown)
VH: QVQLVQSGAEVKKPGASVKVSCKASGFNIKEYYMHWVRQAPEQGLEWMGWIDPENADTIYAQKFQGRVTITADTSTNTAYMELSSLRSEDTAVYYCARSRLFFAYWGQGTLVTVSS
VL: DIQMTQSPKSLSASVGDRVTITCRASQDVRTALDWYQQKPGQSPKLLIYSASYRYSGVPSRFSGSGSGTDFTLTISSLQPEDFATYYCQQQYTTPYTFGQGTKLEIKR
notes: Humanized variant with G80A in HC CDR2 (already in the entry), human IgG1 / kappa

- EC50 [1]: 6 ng/mL
- EC50 [2]: 4 ng/mL
B2: Anti-C1s antibody hz2-8 (H1L2 G80A/T82A) (antibody, V domains shown)
VH: B1 VH with T58A
VL: B1 VL
notes: Humanized variant with G80A and T82A in HC CDR2 (already in the entry), human IgG1 / kappa

- EC50 [1]: 9 ng/mL
- EC50 [2]: 8 ng/mL
B3: Anti-C1s antibody hz2-7(H1L2) (antibody, V domains shown)
VH: EVQLLESGGGLVQPGGSLRLSCAASGFTFSNYFMNWVRQAPGKGLEWVSEIRLKFTNYATHYADSVKGRFTISRDDSKSTLYLQMNSLRAEDTAVYYCTRDYGSRNGYFDYWGQGTLVTVSS
VL: DIVMTQTPLSLPVTPGEPASISCRSSKSLLHSNGNTFLYWFLQKPGQSPQLLIYRMSNLASGVPDRFSGSGSGTDFTLKISRVEAEDVGVYYCMQHLEYPYTFGGGTKLEIKR
notes: Humanized, human IgG1 / kappa; also called hz2-7(1L2)
